Among the data in article PMC7277749, “Evaluation of Aptamers as Affinity Reagents for an Enhancement of SRM-Based Detection of Low-Abundance Proteins in Blood Plasma” are Kd values, retold here.

For this data set, the target named is SMAD4 (rSMAD4) (UniProt Q13485 1-552). Put plainly: MST; 100 nM aptamer; FAM label inferred for MST; MST: 20 mM Tris-HCl pH 7.4, 5 mM KCl, 500 mM NaCl, temperature not stated; pull-down: plasma diluted twice with 10 mM Tris-HCl pH 7.4, 150 mM NaCl plus 0.85 M NaCl, RT, 30 min. The following applies: protein: recombinant; tags: N-terminal His6; label: 3'-FAM; hairpin, 16 bp stem, TTTT loop, 3' A5 tail.
Chain of SMAD4 (rSMAD4) (Q13485 whole entry): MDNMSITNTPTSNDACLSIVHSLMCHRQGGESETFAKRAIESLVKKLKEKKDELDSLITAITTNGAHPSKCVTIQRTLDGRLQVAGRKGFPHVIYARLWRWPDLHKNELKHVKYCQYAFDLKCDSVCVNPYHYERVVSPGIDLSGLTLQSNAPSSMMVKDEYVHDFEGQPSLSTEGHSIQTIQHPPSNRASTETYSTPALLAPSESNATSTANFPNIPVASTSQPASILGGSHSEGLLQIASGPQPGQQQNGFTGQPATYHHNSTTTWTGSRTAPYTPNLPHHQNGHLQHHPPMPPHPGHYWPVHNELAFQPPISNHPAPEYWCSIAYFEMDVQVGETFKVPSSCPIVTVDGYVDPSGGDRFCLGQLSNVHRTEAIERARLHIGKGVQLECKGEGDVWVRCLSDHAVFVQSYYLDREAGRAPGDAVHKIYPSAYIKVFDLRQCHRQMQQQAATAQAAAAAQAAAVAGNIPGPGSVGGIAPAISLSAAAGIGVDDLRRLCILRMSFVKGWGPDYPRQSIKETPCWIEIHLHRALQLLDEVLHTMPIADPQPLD

By Kd is commonly meant a measure of binding affinity in units of concentration. CGAAGTCTAGACAGCGTTTTCGCTGTCTAGACTTCGAAAAA (structured_DNA) [Anti-SMAD4 aptamer, 3'-FAM]: the Kd worked out at 45 ± 7 nM.
